Laboratory results taken from the supplement of paper PMC10567573.
± gives the standard deviation.

Experiment: protein stability index of a GFP-peptide fusion (GPS, HEK-293T) (PSI 1-6); higher = more stable
Conditions: c terminus: a fixed tail appended
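Also: 24-mer peptide tiles fused after GFP, lentivirally expressed, FACS-sorted into six equal bins by GFP/DsRed ratio, decoded by Illumina sequencing, PSI is the read-weighted mean bin number.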

Sequence | protein stability index (treatment: DMSO) | protein stability index (treatment: MLN4924 1 uM, 8 h)
ETAEEVSARIVQVVTAEAVAVLKG [MAP2] | 3.36 ± 0.27 | 3.45 ± 0.34
RRLLEGEDAHLTQYKKEPVTTRQV [KRT17] | 4.56 ± 0.25 | 4.66 ± 0.18
FSPANPESSMEDCLAHLGEKVSQE [BCL2L13] | 5.2 ± 0.38 | 5.39 ± 0.16
SSGPARGIAIVSVLVILISIVIFC [KCNA3] | 2.21 ± 0.21 | 2.21 ± 0.28
KRRGPQRSVDVVVSSVFLLTLSIA [PHTF1] | 2.55 ± 0.32 | 2.33 ± 0.23
SSPGPWGLEALAGGDLMPAPADPT [FCHO1] | 4.78 ± 0.4 | 4.65 ± 0.23
FLFQKPGDKYEHHSYMGMRGFCAF [POMT2] | 2.55 ± 0.75 | 1.99 ± 0.22
RKSVRYTRQKKNLPDSPLRFDGLP [TRIM15] | 3.59 ± 0.19 | 3.66 ± 0.12
RNSGIIGGKYLGRTKVVKPYSTVD [EFHC1] | 2.91 ± 0.26 | 3.46 ± 0.17
DVLNDAIFDEDHDEMVIVKDIDMF [GCH1] | 3.5 ± 0.15 | 3.62 ± 0.2
DFPEEDDPTNWLRCYYYEDTISTI [NCF4] | 3.28 ± 0.25 | 3.2 ± 0.22
FGQQDWKFLASHFPNRTDQQCQYR [MYBL2] | 2.62 ± 0.36 | 3.08 ± 0.27
PTTRNYPELNNNQYNRSSNSNGGN [CDC14A] | 4.654 ± 0.022 | 4.79 ± 0.1
GADNIDVSHPIIYRGAVYADNMEF [FEM1B] | 3.11 ± 0.17 | 3.21 ± 0.48
PELPEGHLEDWLEKRAKRLSSAPS [ZMAT5] | 4.32 ± 0.12 | 5.14 ± 0.14
ECGKRFLRSSDLYRHQRLHTGERP [ZNF449] | 3.08 ± 0.26 | 3.22 ± 0.24
TPAITVSNSCPAELPNIKREISET [TFE3] | 5.16 ± 0.35 | 4.86 ± 0.22
GAMLGQTTSEEAVGGATPDQTTSE [HDAC6] | 4.91 ± 0.58 | 5.59 ± 0.073
QFAISRELIRNIYNSFHKLRDRAE [SNX8] | 2.19 ± 0.13 | 2.23 ± 0.21
KTTGLEEAAEAETAKDNGEAEDQE [SRPK2] | 5.69 ± 0.14 | 5.73 ± 0.24
VNLPISFFRKLLDCCQVSAPNRFF [NLN] |  | 2.62 ± 0.6
LQGLSLIVTWFMLLYAQGLLAIQF [SLC19A2] | 3.16 ± 0.26 | 3.16 ± 0.26
